Measurements reported in patent US20210347865A1 (STATEN BIOTECHNOLOGY B V, published 2021).
Residue numbers refer to the chain shown, from its start.

B1: 5E5 WT IgG (antibody, V domains shown)
VH: QLQLVESGGGLVQPGGSLRLSCAASGFTFGTYSMRWVRQVPRKALEWVSSISTDGGGTAYRDSVKGRFTISRDNAKNTLYLQMNNLKPEDTAIYYCVIAGYSDWGQGTQVTVSS
VL: ATMLTQSPGSLSVVPGESASISCKTSQGLVHSDGKTYFYWFLQKPGQSPQQLIYQVSNRASGVPDRFTGSGSGTDFTLKISGVKAEDAGVYYCAQGTYYPHTFGSGTRLEIK
notes: Full-length IgG captured by an anti-human Fc antibody
B2: 29A05 IgG (antibody, V domains shown)
VH: B1 VH
VL: DVVLTQTPGSLSVVPGESASISCKASQSLVYSDGKTYLYWLLQKPGQSPQRLIYQVSNRDSGVPDRFTGSGSGTDFTLKISGVKVEDAGVYYCAQGTYWPKTFGQGTKLEIK
B3: 29F10 IgG (antibody, V domains shown)
VH: B1 VH
VL: B2 VL with S18P, I21V, Y31H, S32P, D60G, K79E, V85A
B4: 29A06 IgG (antibody, V domains shown)
VH: B1 VH
VL: B2 VL with S28N, Y31H, D33N, D60G, G62E, V85A
B5: 29G11 IgG (antibody, V domains shown)
VH: B1 VH
VL: B2 VL with E17G, L42R, D60P, V85A, G96D, W99S, P100T
B6: 29G02 IgG (antibody, V domains shown)
VH: B1 VH
VL: DVVLTQTPGSLSVVPGESASISCKATQSLVHIDGKTYLYWLLQKPGQSPQRLIYQVSTRDSGVPDRFTGAGSGAEFTLKISGVKAEDAGVYYCAQDTYSTKTFGQGTKLEIK

What follows are binders tested against T1, native human ApoC3 (human, UniProt P02656 21-99, biotinylated in the captured-antigen assays (Tables 6 and 8); sites not stated) (assay: SPR, IgG captured via anti-human Fc, ApoC3 analyte 50 nM).
T1 construct: also called nhuApoC3; native huApoC3
T1 sequence (P02656 21-99): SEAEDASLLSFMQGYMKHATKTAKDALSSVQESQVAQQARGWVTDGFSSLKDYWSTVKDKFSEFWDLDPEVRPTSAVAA
Description: (§1) Immobilization was performed in accordance with the method provided by Biacore in the NHS/EDC kit (Biacore AB). Briefly, after activation of the chip, a solution of 30 μg/ml anti-human Fcγ antibody in 10 mM acetate buffer with pH 5.0 was injected until the surface density reached approximately 10,000 RU. […] Following antibody capture, 100 μl of HBS-EP buffer was injected and passed through the flow cells at 30 μl/min. To bind target, 60 μl of 400 nM, 200 nM, 100 nM, or 50 nM ApoC3 protein in HBS-EP buffer was injected. An off-rate wash was performed by injection of HBS-EP buffer at 30 μl/min for 5 min. After dissociation, the flow cell surfaces were regenerated by injecting 20 μl of 10 mM glycine at pH 1.5.
(§2) The resulting sensorgrams were analysed with BIAevaluation 4.1 software using the Langmuir 1:1 binding model to derive binding kinetics. Data was zero adjusted and the reference cell sensorgrams were subtracted. A no-analyte blank assay was used for double referencing the sensorgrams corresponding to nhuApoC3 and rcyApoC3 injections. The dissociation and association phase sensorgrams were fitted separately for the 4 different concentration curves. Sensorgrams were excluded from the fitting if maximum RU values were below the limit of detection (i.e., <5 RU). SPR signals were too low to calculate kinetic parameters for […].

Binder	Kd [nM]	koff [s⁻¹]	kon [M⁻¹ s⁻¹]
B1	0.695	0.000114	164000
B2	6.01	0.00126	210000
B3	1.71	0.000246	144000
B4	0.755	0.000314	416000
B5	4.79	0.00115	240000
B6	2.31	0.000718	311000

Each binder was assayed against T1, native human ApoC3 (assay: SPR, IgG captured via anti-human Fc, ApoC3 analyte 100 nM).
Description: as §1, §2

Binder	Kd [nM]	koff [s⁻¹]	kon [M⁻¹ s⁻¹]
B1	0.734	0.000121	165000
B2	6.42	0.00132	206000
B3	1.63	0.000219	134000
B4	0.814	0.000317	390000
B5	4.85	0.00117	241000
B6	2.52	0.000758	301000

What follows are binders tested against T2, recombinant cynomolgus ApoC3 (cynomolgus monkey, UniProt P18659 21-99, biotinylated in the captured-antigen assays (Tables 6 and 8); sites not stated) in the same assay as above.
T2 construct: No cleavage site is stated, so none is applied; also called rcyApoC3; bio-rcyApoC3
T2 sequence (P18659 21-99 limits assumed): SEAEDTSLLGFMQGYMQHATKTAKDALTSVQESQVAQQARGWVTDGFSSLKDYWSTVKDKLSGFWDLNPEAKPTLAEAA
Description: as §1, §2

Binder	Kd [nM]	koff [s⁻¹]	kon [M⁻¹ s⁻¹]
B2	296	0.00887	30000

The binders below were run against T1, native human ApoC3 (assay: SPR, IgG captured via anti-human Fc, ApoC3 analyte 200 nM).
Description: as §1, §2

Binder	Kd [nM]	koff [s⁻¹]	kon [M⁻¹ s⁻¹]
B1	0.77	0.000128	166000
B2	6.87	0.00133	194000
B3	1.63	0.000217	133000
B4	0.91	0.00032	351000
B5	5.21	0.00122	234000
B6	2.57	0.000733	286000

The binders below were run against T2, recombinant cynomolgus ApoC3 in the same assay as above.
Description: as §1, §2

Binder	Kd [nM]	koff [s⁻¹]	kon [M⁻¹ s⁻¹]
B2	359	0.00875	24400

Each binder was assayed against T1, native human ApoC3 (assay: SPR, IgG captured via anti-human Fc, ApoC3 analyte 400 nM).
Description: as §1, §2

Binder	Kd [nM]	koff [s⁻¹]	kon [M⁻¹ s⁻¹]
B1	0.741	0.000122	165000
B2	7.36	0.00133	181000
B3	1.8	0.000219	122000
B4	0.973	0.000327	336000
B5	5.76	0.00119	207000
B6	3.04	0.000752	247000

Each binder was assayed against T2, recombinant cynomolgus ApoC3 in the same assay as above.
Description: as §1, §2

Binder	Kd [nM]	koff [s⁻¹]	kon [M⁻¹ s⁻¹]
B2	365	0.00983	26900
B4	919	0.0207	22500

The binders below were run against T1, native human ApoC3 (assay: SPR, antigen immobilized on CM5 chip, IgG as analyte, pH 7.4).

Binder	Kd [nM]	koff [s⁻¹]	kon [M⁻¹ s⁻¹]
B2	0.16	8.2e-05	520000
B3	0.04	2.4e-05	620000
B4	0.07	6.5e-05	950000
B5	0.04	6.3e-05	1.44e+06
B6	0.01	1.6e-05	1.32e+06

Each binder was assayed against T2, recombinant cynomolgus ApoC3 in the same assay as above.

Binder	Kd [nM]	koff [s⁻¹]	kon [M⁻¹ s⁻¹]
B2	0.21	6.4e-05	310000
B4	0.15	7.5e-05	500000

The binders below were run against T1, native human ApoC3 (assay: SPR, biotinylated antigen captured on streptavidin chip, IgG as analyte, pH 7.4).

Binder	Kd [nM]	koff [s⁻¹]	kon [M⁻¹ s⁻¹]
B1	0.05	1.8e-05	350000
B2	0.13	6.3e-05	500000
B4	0.04	4.2e-05	960000
B5	0.05	7.3e-05	1.38e+06
B6	0.02	3.3e-05	1.31e+06

What follows are binders tested against T2, recombinant cynomolgus ApoC3 in the same assay as above.

Binder	Kd [nM]	koff [s⁻¹]	kon [M⁻¹ s⁻¹]
B2	0.65	0.000175	270000
B3	1.75	–	–
B4	0.46	0.000169	370000
B5	0.25	–	–
B6	0.37	–	–

These binders were tested against T2, recombinant cynomolgus ApoC3 (assay: SPR, antigen immobilized on CM5 chip, IgG as analyte, pH 7.4; antigen immobilized on chip, IgG as analyte (50-0.8 nM)).

Binder	Kd [nM]	koff [s⁻¹]	kon [M⁻¹ s⁻¹]
B3	2.79	0.000774	280000

These binders were tested against T2, recombinant cynomolgus ApoC3 (assay: SPR, antigen immobilized on CM5 chip, IgG as analyte, pH 7.4; antigen immobilized on chip, IgG as analyte (12.5-0.8 nM)).

Binder	Kd [nM]	koff [s⁻¹]	kon [M⁻¹ s⁻¹]
B5	0.38	0.000531	1.4e+06
B6	0.5	0.000552	1.11e+06

These binders were tested against T1, native human ApoC3 (assay: SPR, antigen immobilized on CM5 chip, IgG as analyte, pH 7.4; footnote: n/a: not applicable; below the limits of detection kd: 1E-06 1/s).

Binder	koff [s⁻¹]
B1	< 1e-06

These binders were tested against T2, recombinant cynomolgus ApoC3 (assay: SPR, biotinylated antigen captured on streptavidin chip, IgG as analyte, pH 7.4; biotinylated antigen captured on streptavidin chip, IgG as analyte).

Binder	koff [s⁻¹]	kon [M⁻¹ s⁻¹]
B3	0.000388	220000
B5	0.000228	920000
B6	0.000275	750000

Each binder was assayed against T1, native human ApoC3 (assay: SPR, biotinylated antigen captured on streptavidin chip, IgG as analyte, pH 7.4; footnote: n/a: not applicable; below the limits of detection kd: 1E-06 1/s).

Binder	koff [s⁻¹]
B3	< 1e-06
